From the nanobody polyreactivity screen of Harvey et al. (2022)

Test: yeast display, Sf9 membrane polyspecificity reagent, FACS + sequencing; frameworks hold sequencing errors
Summary of the method: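 A nanobody's polyreactivity label depends on the gate it was sorted from. Yeast display cells were stained with 10% biotinylated, detergent-solubilized Sf9 membrane reagent for 1 hour at 4 °C, enriched on streptavidin microbeads and sorted by FACS. The low and high (top ~1%) gates were set on anti-HA fluorescence for expression and streptavidin fluorescence for reagent binding.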

Row | Sequence | polyreactivity (PSR sort gate)
1 | QVQLVESGGGLVQAGGSLRLSCAASGSIFGYYAMGWYRQAPGKERELVAAIRTTGGRTYYADSVKGRFTISRDNAKNTVYLQMNSLKPEDTAVYYCNALQAGVSYDYWGQGTQVTVSS | high polyreactivity
2 | QVQLVESGGGLVQAGGSLRLSCAASGSTFRYNAMGWYRQAPGKEREFVAAITTSGVRTYYADSVKGRFTISRDNAKNTVYLQMTSLKPEDSAVYYCAARANYIFYGMDYWGQGTLVTVSS | high polyreactivity
3 | QVQLVESGGGLVQAGGSLRLSCAASGNTFYGYAMGWYRQAPGKERELVASITLSGDSTYYADSVKGRFTISRDNAKNTVYLQMNSLNPEETAVYYFNAQFTPRYWGGYDSWGQGTQVTVSS | low polyreactivity
4 | QVQLVESGGGLVQAGGSLRLSCAASGSIFVRYAMGWYRQAPGKERELVAGITNSGGSTYYADSVKGRFTISRDNEKNTVYLQMNSLKPEDTAVYYCAADAGGWWYKYYYWGQGTQVTVSS | high polyreactivity
5 | QVQLVESGGGLVQAGGSLRLSCAASGITFSRNTMGWYRQAPGKERELVAAISRSGASTYYADSVKGRFTISRDNAKNTVYLQMNSLKPEDTAVYYCAARFHYPGGPRYYYWGQGTQVTVSS | high polyreactivity
6 | QVQLVESGGGLVQAGRSLRLSCAASGSISRFYAMGWYRQAPAKERELVGANSWSGGRTYYADSVKGRFTISRDNAKNTVYLQMNSLKPEDTAVYYCNAFRRYNDEDYWGQGTQVTVSS | high polyreactivity
7 | QFQLVESGGGLVQAGGSLRLSCAASGRIVGRNAMGWYRQAPGKERELVAAISGNGGSTYYADSVKGRFTISRDNAKINVYLQMNSLKPEDTAVYYCATKYFSRMDYWGKGTQVTVSS | high polyreactivity
8 | QVQLVESGGGLVQAGGSLRLSCAASGRIFVGYAMGWYRQAPGKERELVAAITKSGGRTYYADSVKGRFTISRDNAKNTVYLQMNSLKPEDTAVYFCAKYLGRQHEKDLGGMNYWGQGTQLTVSS | high polyreactivity
9 | QVQLHESGGGLVHACGSLRPSCAASGSISDSWTMSWYRQAPGKEREFVAGITWGGTTNYADSVKRRFTISRDNAKNNVFLQMNSLKPEDTAVYYCAAVSYYGVDQYRITVYTYEYWGQGTQVTVSS | low polyreactivity
10 | QVQLVEKGGCLVQAGGSLSLSCAAYGRTFILNSMGCYRQAPWKEMELVAAISWSGGSTYYADSVKGRFTISRDNAKNTVYLQMNSLKPEDTAVYYCAAETYAYLFHTYDYWGQGTQVTVSS | low polyreactivity
11 | QVQLVESGGGLVQAGGSLRLSCAASGSIIGTYAMGWYRQAPGKERELVAAISSSSTRTYYADSVKGRFTISRDTAKNTVYLQMNSLKPEDTAVYYCAATFTAVRGKYGYWGQGTQVTVSS | high polyreactivity
12 | QVQLVESGGGLVQAGGSLRLSCAASGNIFYYNAMGWSRQGPGKEMELVAAISSGGSTNYADSVKGRFTISRDNAKNTVYLQMNSLKPEDTAVYYCAANYVTIGSGYYGYDYWGQGTQVTVSS | low polyreactivity
13 | QVQLVESGGGLVQAGGSLRLSCAASGRTFLWNDMGWSRQAPGKERELVAAITGSDGTYADSVKGRFTISRDNAKNTVYLQMNSLKPEDTAVYYCAAETYWYFPWKYDYWGQGTQVTVSS | low polyreactivity
14 | QVQLVESGGGLVQAGGSLRLSCAASGFTFIDYAMGWSRQAPGKERELVAAITRDGGSTYYADSVKGRFTISRDNANNTVYLQMNRLKPEDTAVYYCATVRRVQHWVWYWLWRYDYWGQGTQVTVSS | high polyreactivity
15 | QVQLVESGGGLVQAGGSLRLSCAASGRTFRAYAMGWYRQAPGKERELVAAISRSGGRTYYADSVKGRFIISRDNAKITVYLQMNSLKPEDTAVYYCAAGSNIWGQGTQVTVSS | high polyreactivity
16 | QVQLVESGGGLVQAGGSLRLSCAASGSIFVGYGALGWYRQAHGKERELVAAITSGTSTYYADSVKGRFTISRDNAKNTVYLQINSLKPEDTAVYYCAARGFLKYVTEFDYWGQGTQVTVSS | low polyreactivity

Row | Sequence | polyreactivity (PSR sort gate)
17 | QGQLVESGGGLVQAGGSLRLSCPASGRIFNTYAMGWYRQAPGKERELVAAINWSGGRTYYADSVKGRFTISRDNAKNTVYLQMNSLKPEDSAVYYCKARGRRRVPEFDYWGQGSQVTVSS | high polyreactivity
18 | QVQLVESGGGLVQAGGSLRLSCAASGGTIDNAMGWYRQAPGKERELVAAISKHGGRTYYADSVKGRFTISRDNAKNTVYLQMNSLKAEDTAVYYCAADAFRGFFWGQGTQVTVSS | high polyreactivity
19 | QVQLVESGGGLVQAGGSLRLSCSAYGSIFYGYAMGWYRQAPGKERELVAAITWSGGSTYYADSVKGRFTISRDIAKNTVYLQMNSLKPEDTAVYYCNALWVWYRGSSVRWVGGYDYWGQGTQVTVSS | high polyreactivity
20 | QVQLVESGGGLVQAGGSLRLSCAASGRTFVTNAMGWYRQAPGKERELVAAISKSGGRTYYADSVKGRFTISRDNAKNTVYLQMNRLKPEDTAVYYCAADKRYLSYDYWGQGTQVTVSS | high polyreactivity
21 | QVHLVESGGGLVQAGGSLRLSFAASGRIFARYALGWYRPAPGKERELVAAITSGGSTHYADSVKGRFTIARENAKNTVYLQMNSLKPEDSAVYYCAAVYRGQRYDYWGQGTQVTVSS | high polyreactivity
22 | QVQLVESGGGLVEAGGSLRLSCAASGRTFDYNAMGWYRQAPGKERELVAAISRGGSTYYADSVKGRFTISRDNPNNSVYLQMNSLKPEDTAVYYCAALYVRVGYDYWGQGTQVTVSS | high polyreactivity
23 | QVQLVESGGGLVQAGGSLRLSCADSGLIFKYYAMGWYRQAPGKERELVAVITSSGGSTYYADSVKGRFTISRDNAKNTVYLQMNSLKPEDTAVYYCAARRVRWPYDYWGQGTQVTVSS | high polyreactivity
24 | QVQLVESVGGLDQAGVSLRLSSAASGSTFGSYVMGWYRQSPGKERELVASISDGGITNYADSVKGRFTISRDNAKNTVYLQMNSLNPEDTAVYYCAAATRPFSDYTTEGYYYWGQGTQVTVSS | low polyreactivity
25 | QVQLVESGGGLVQAGGSLRLSCAASGIIFGGYTMGWYRQAPGKERELVAAISSTGASTYYADSVEGRFTISRDNAKNTVYLQMNSLKPEDTAVYYCNAKRAPWGTLYNYWGQGTQVTVSS | high polyreactivity
26 | QVQLVESGGGLVQAGGSLRLSCAASGRTFPRYAMGWYRQAPGKEMELVAAISVRAGITYYADSVKGRFTISRDNAKNTVYLQMNSLKPEDTAVYYCAKDHWTTSYDEGDYWGQGTQVTVSS | low polyreactivity
27 | QVQLVESGGGLVQAGGSLRLSCAASGLIFWYNAMGWDRQATGKEREFVAAITSDGGRTYYADSVKGRFTISRDNAKNTVYLQMNSLKTEDTAVYYCTARGYGYLGRKGGYSYGYYYWGQGTQVTVSS | low polyreactivity
28 | QVQLVESGGGLVQAGGSLRLSCAASGRTFYNNAMGWDRQAPGKERELVATINNRGGPTYYADSVKGRFTISRDNAQNTVYFQMNSLKPEDTAVYYCAASGWHGYNYWGQGTQVTVSS | high polyreactivity
29 | QVQLEESGGGIVQAGGSLRLSCAASGITFRFYAMGWYRPAPGKERELVAAITRSGSSTYYADSVKGRFTISRDNAKNTVYLQMNSLKPEDTAVYYCATDPYWNRPYVKYDYWGQGTLVTVSS | high polyreactivity
30 | QVQLVESGGGLVQAGGSLRLSSAASGITFDVNVMGWYRQAPRKERELVAAIRRGDSTDYADSVKGRFSISRDNEKNTVYLQMKSLKPEDTAVYYCAADDSGYELRAYTWPYFGYDYWGQGTQVTVSS | low polyreactivity
31 | QVQLVESGGGLVQAGCSLSLSCAASGSIFGRYTMGWYRQAPGKERELVAAINLRGGSTYYADSVKGRFTISRDNAKNTVYLQMNSLKPEDTAVYYCATVGWKQSAYDYWGQGTQVTVSS | low polyreactivity
32 | QVHLVESGGGLVQAGGSLRLSCAAYGSIFRVYAMGWYRPAPGKERELVAAIDSGGSTYYADSVKGRFTISRDNAKNTVYLQMNSLKPEDTAVYYCNADRRPGGDYWGQGTQVTVSS | low polyreactivity
